B1: TPR t1 (parent)
chain: GACCAAUCUGCCCUCAGAGCUCGAGAACAUCUUCGGAUGCAGAGGAGGCAGGCUUCGGUGGCGCGAUAGCGCCAACGUCCUCAACCUCCAAUGCAUCCCACCACAUGAUGAUGCCUGAAGAGCCUUGGUUUUUUG

Variants of: B1
Assay: polymerase ribozyme fitness, log enrichment relative to wild type (log ratio); higher = more active; in vitro selection for triplet polymerase activity
Summary of the method: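 The heterodimeric triplet polymerase ribozyme's subunits were each mutagenized into PCR-built libraries and transcribed. Every library was selected once, in triplicate, by annealing with a biotinylated primer, the partner subunit and triplets, incubating frozen at −7 °C, gel-excising extended constructs, capturing on streptavidin beads and running RT-PCR. Input and output libraries were Illumina-sequenced, with genotypes kept only at ≥10 input reads and ≥1 read per output. Fitness, from inverse-variance-weighted replicate averages, is the base-2 logarithm of genotype enrichment over wild-type enrichment.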

| Variant | polymerase ribozyme fitness (log ratio) |
| --- | --- |
| C13U C49G A50U G58A A95G C114G | -5.63 |
| C53U C88A G110A U112G | -4.23 |
| C72A U78G | -1.71 |
| U7A G57A | -0.474 |
| C94A A95C U131G | -2.37 |
| C89G G127A | -1.9 |
| C4U G57A G61A | -0.861 |
| A95G U112A A119U | 0.842 |
| C53G C114G | -3.08 |
| U109A A111C C114A G117C | -6.37 |
| U9C C11U U78C C82G A83U | -0.241 |
| C28A G47A C79U G110C | -2.69 |
| C22U G120C | -2.63 |
| C8U A43G G48U C101A | -3.37 |
| U7G U59G C62U A84C A90U A111U C115A | -5.26 |
| G42A A111U | -5.4 |
| U131C | 0.237 |
| C12G A66C G93A C104U | -1.71 |
| C40A G44U G45A | -3.66 |
| C11A C13G C115A | -6.59 |
| C70U C79G | -2.8 |
| C20G C56A | -4.28 |
| U7G C20U G60C U133G | -1.91 |
| G45U C82A C102U G122A | -3.36 |

| Variant | polymerase ribozyme fitness (log ratio) |
| --- | --- |
| G25U C56G U81G A121G C124U | -5.96 |
| C4A G45C G120A G127C | -1.29 |
| G19A C73U C86U U96A G110A | -5.32 |
| C3U G39C G44A G63A G77U U78A A119G | -2.88 |
| C56A C123U C124U | 1.2 |
| A29G A41C A119U U133G | -2.94 |
| C15U G39C | -1.93 |
| A6C G71C G113U | -4.81 |
| G48A U130C | -0.486 |
| C34A G71A U78C C94U U125A | -5.82 |
| U14G G45C G110U | -3.81 |
| C13G G69C C98U | -3.93 |
| C34G C82U | -6.19 |
| G61C C88A | -2.91 |
| C101G G110U | -4.98 |
| U9A C13A G51U C94G | -4.04 |
| C76A G110A | -1.79 |
| C8G A18U C73G U126G | -5.64 |
| A66G A100U G128A | -5.33 |
| A18C G61A | -2.53 |
| C8U G63C C102U | -2.5 |
| A29G C49G C85G | -2.46 |
| A46U C101A U130G | -2.84 |
| A18U C40G C114A | -3.02 |

| Variant | polymerase ribozyme fitness (log ratio) |
| --- | --- |
| C3U G69C C88G U96G | -2.75 |
| C12U A16U A66C A105C C124G | -5.31 |
| G17C A37U U54G U112C | -3.41 |
| C72U G93A | -0.542 |
| U33G G61A C80G A91C U92A C101U C115G | -8.32 |
| C15U A37G C53U U116C | -2.52 |
| C62A C97U | -1.52 |
| C15G G17U C40U | -4.85 |
| G44U C114G | -3.66 |
| G58A G63U A118G | -0.392 |
| G48U A105C | -2.86 |
| G42U C53G G77U U126C | -2.18 |
| A95C C97U C101G | -3.36 |
| C97A U131A | -3.97 |
| C20U U55G | -1.39 |
| C79U G120U | 0.0692 |
| G48A G61C C88A C97U C115G A119G U126A | -3.38 |
| G19A A43U C49U U59A C124U | -1.73 |
| A18C C40U A41G C56G C70U | -4.84 |
| A29G A111C | -0.114 |
| U9A C20U A43U A50C U87A | -1.81 |
| C56G C115U G135C | -1.67 |
| U54G C56A U132C | -1.66 |
| C40A A111C | -1.49 |

| Variant | polymerase ribozyme fitness (log ratio) |
| --- | --- |
| C70U C114U | -2.88 |
| C70A G120C | -0.593 |
| G52U G120A | -0.091 |
| U9G G69A | -2.25 |
| C70U U87C U116A A121C | -2.16 |
| A43G C114G | -3.66 |
| U87G G117A | -1.13 |
| C82G U132A | -0.6 |
| G10U G44C C88U A105G G120C | -3.52 |
| G10A G19A C114U U133G | 0.465 |
| C88A U92A G113A | -3.73 |
| C56A C73G | -2.34 |
| G61U G107A U112C G122A | -5.04 |
| C40U C56U A74U U78C C89G | -2.81 |
| G61C A103C U109G | -5.79 |
| A84G G127C | -2 |
| C13G C22U G39U C53G | -5.48 |
| C72A C86U | -0.17 |
| C3U G10A G44C C49A G120U | 0.0361 |
| U14C A46U A74G | -1.32 |
| C22U G69A C104G A111C | -7.35 |
| C73U U81A U116G U125A | -4.02 |
| U38G G42A C79U | -2.56 |
| A2G C4G G47A G48A C123A | -3.22 |

| Variant | polymerase ribozyme fitness (log ratio) |
| --- | --- |
| A50U G110C | -4.17 |
| C3A C8A C40G G61U A100C | -2.95 |
| G25C | -5.94 |
| G39C C72U U129G | -2.2 |
| A18U C22A G113A | -3.79 |
| A29U G47A C86G | -2 |
| C11A G69C A121G | -0.0496 |
| A18U A26G C40G A43U G69A C97A U112A | -7.04 |
| U96G A108G G117A | -4.91 |
| A83U G93C C104U U116G G122A | -4.03 |
| C13A G36A G52U C97U A111C | -2.68 |
| G25U C76A G113C | -5.51 |
| C4A C114G | -4.25 |
| A2U C8G | -0.639 |
| G25C A29G U33C G60A C98U G113C | -7.69 |
| U38G G42C A43U G71C C82U C115U | -4.36 |
| C11U G36U | -1.77 |
| C56U G57U C70A | -2.65 |
| G58U C62A U92A | -5.81 |
| G61U G77A U130G | -0.935 |
| A43U G45A C56U C62U U92A | -4.61 |
| C8U A37G C56U C73G G110U A119U | -3.74 |
| G61C G77U U112A | -2.37 |
| C82A C86A | -0.787 |

| Variant | polymerase ribozyme fitness (log ratio) |
| --- | --- |
| G60U C89U U92A A118U | -2.14 |
| A46C G60C A68U | -7.2 |
| A6C U9G G69U A83G A91C G117U G135A | 0.71 |
| C20U A26G G71U U109A | -5.57 |
| C64A C124A | -4.7 |
| C13A G71U A74G U109A | -6.36 |
| C12G A26C A27C G36U C97A C101U U109A | -7.51 |
| C15U G71U C101U | -1.24 |
| C3U C13U C34U C62U C85U | -5.63 |
| C62U C82U | 1.12 |
| A37U C72A C98A C123G | -5.43 |
| G60A G61U G127C | -5.15 |
| C13U G17U G63U U78C | -3.99 |
| C11G G44A A68G | -4.14 |
| C49G U78G U112A | -0.0739 |
| C49U G51U | -5.95 |
| G71A G120C G127A U131G | 1.2 |
| U9G G61U G77A C97G U130C | -5.47 |
| C62U A95C G113U G135A | -3.24 |
| U59C U130C | -0.123 |
| C12U A16U C22G U38G G52C A111U | -3.72 |
| C8G C28A | -3.24 |
| G42A A100C | -4.08 |
| C12A C79A A111G | -2.24 |

| Variant | polymerase ribozyme fitness (log ratio) |
| --- | --- |
| U7A G17U G117A A118G | -2.58 |
| C12A C15U G52U G63A C86U G117C | -5.35 |
| C15U U21C C49G G117A | 0.389 |
| C86A G110A C123G | -1.37 |
| C28U A121C | -0.0887 |
| C53U G69U C88G G110C C115A A121C C124G | -2.79 |
| G63C C76U U87G U116A G120A | -4.12 |
| U30C A50G A74G C123U | -3.32 |
| C3A G71C C79G A119G C123A | -1.16 |
| C72U C124G | 1.47 |
| G48U G57U A75G A83C G117A | -4.82 |
| C12G C28U C72U C123U U125G | -0.502 |
| A26C A43C A46C C56G C86A A90G C123G | -6.74 |
| C8U C13U G35C A46U C115A | -3.54 |
| A43U G71U A91G | -2.96 |
| G60U C124A | 1.7 |
| C20A C49G U106C | -3.68 |
| C22G C82U | -3.57 |
| G117A A119C G120C G122A U133G | -3.42 |
| G44A G60U | -0.542 |
| C73G C123U | 0.00475 |
| U87G U130G | -0.21 |
| C49G C62A A100U | -2.34 |

Source: the RNAGym collection of RNA variant scans (doi:10.1073/pnas.2313332121)
